The record followed here is paper PMC7610691 (Nature structural & molecular biology, 2020).

The chains are these.
T1: Smc4 (S. cerevisiae condensin subunit) (S. cerevisiae, UniProt Q12267 1-1418)
T1 sequence: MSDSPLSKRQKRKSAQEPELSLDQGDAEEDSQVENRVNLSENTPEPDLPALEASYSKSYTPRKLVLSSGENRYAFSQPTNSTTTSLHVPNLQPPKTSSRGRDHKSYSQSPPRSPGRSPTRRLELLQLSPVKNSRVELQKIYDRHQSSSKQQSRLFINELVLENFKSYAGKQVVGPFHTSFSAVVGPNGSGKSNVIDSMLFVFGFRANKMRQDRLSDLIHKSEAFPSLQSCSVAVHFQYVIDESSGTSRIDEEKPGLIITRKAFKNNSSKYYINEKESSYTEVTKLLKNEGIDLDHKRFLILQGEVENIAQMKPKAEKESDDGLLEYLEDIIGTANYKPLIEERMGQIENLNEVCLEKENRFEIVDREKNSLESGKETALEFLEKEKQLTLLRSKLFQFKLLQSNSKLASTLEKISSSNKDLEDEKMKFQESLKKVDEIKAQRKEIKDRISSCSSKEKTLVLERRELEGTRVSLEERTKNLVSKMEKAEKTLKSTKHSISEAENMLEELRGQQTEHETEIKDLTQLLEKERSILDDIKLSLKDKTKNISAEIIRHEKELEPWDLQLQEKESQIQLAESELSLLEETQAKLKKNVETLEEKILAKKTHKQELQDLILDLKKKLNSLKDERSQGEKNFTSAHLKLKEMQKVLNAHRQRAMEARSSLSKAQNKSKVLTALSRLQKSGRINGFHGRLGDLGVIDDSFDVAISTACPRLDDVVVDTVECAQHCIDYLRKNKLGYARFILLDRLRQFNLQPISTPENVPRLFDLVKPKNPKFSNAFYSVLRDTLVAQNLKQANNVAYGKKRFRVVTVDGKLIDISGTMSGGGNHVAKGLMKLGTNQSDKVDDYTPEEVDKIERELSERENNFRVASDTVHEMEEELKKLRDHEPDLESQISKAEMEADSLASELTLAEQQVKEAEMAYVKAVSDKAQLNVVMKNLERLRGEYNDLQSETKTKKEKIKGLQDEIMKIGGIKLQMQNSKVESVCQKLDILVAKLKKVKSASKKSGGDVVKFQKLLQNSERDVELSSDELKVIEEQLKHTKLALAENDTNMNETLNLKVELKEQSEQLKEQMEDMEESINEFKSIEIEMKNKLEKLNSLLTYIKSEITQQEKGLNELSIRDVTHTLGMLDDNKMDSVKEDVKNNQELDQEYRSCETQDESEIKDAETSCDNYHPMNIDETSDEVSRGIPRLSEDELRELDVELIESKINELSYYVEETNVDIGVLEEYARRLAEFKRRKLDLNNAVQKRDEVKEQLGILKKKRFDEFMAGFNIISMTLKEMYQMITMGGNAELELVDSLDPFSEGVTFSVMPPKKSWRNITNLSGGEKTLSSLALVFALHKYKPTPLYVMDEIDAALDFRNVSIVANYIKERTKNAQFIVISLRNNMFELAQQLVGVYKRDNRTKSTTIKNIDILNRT

B1: Smc2 (S. cerevisiae condensin subunit) (natural protein)
chain: MKVEELIIDGFKSYATRTVITDWDPQFNAITGLNGSGKSNILDAICFVLGIASMSTVRASSLQDLIYKRGQAGVTKASVTIVFDNTDKSNSPIGFTNSPQISVTRQVVLGGTSKYLINGHRAPQQSVLQLFQSVQLNINNPNFLIMQGKITKVLNMKPSEILSLIEEAAGTKMFEDRREKAERTMSKKETKLQENRTLLTEEIEPKLEKLRNEKRMFLEFQSTQTDLEKTERIVVSYEYYNIKHKHTSIRETLENGETRMKMLNEFVKKTSEEIDSLNEDVEEIKLQKEKELHKEGTISKLENKENGLLNEISRLKTSLSIKVENLNDTTEKSKALESEIASSSAKLIEKKSAYANTEKDYKMVQEQLSKQRDLYKRKEELVSTLTTGISSTGAADGGYNAQLAKAKTELNEVSLAIKKSSMKMELLKKELLTIEPKLKEATKDNELNVKHVKQCQETCDKLRARLVEYGFDPSRIKDLKQREDKLKSHYYQTCKNSEYLKRRVTNLEFNYTKPYPNFEASFVHGVVGQLFQIDNDNIRYATALQTCAGGRLFNVVVQDSQTATQLLERGRLRKRVTIIPLDKIYTRPISSQVLDLAKKIAPGKVELAINLIRFDESITKAMEFIFGNSLICEDPETAKKITFHPKIRARSITLQGDVYDPEGTLSGGSRNTSESLLVDIQKYNQIQKQIETIQADLNHVTEELQTQYATSQKTKTIQSDLNLSLHKLDLAKRNLDANPSSQIIARNEEILRDIGECENEIKTKQMSLKKCQEEVSTIEKDMKEYDSDKGSKLNELKKELKLLAKELEEQESESERKYDLFQNLELETEQLSSELDSNKTLLHNHLKSIESLKLENSDLEGKIRGVEDDLVTVQTELNEEKKRLMDIDDELNELETLIKKKQDEKKSSELELQKLVHDLNKYKSNTNNMEKIIEDLRQKHEFLEDFDLVRNIVKQNEGIDLDTYRERSKQLNEKFQELRKKVNPNIMNMIENVEKKEAALKTMIKTIEKDKMKIQETISKLNEYKRETLVKTWEKVTLDFGNIFADLLPNSFAKLVPCEGKDVTQGLEVKVKLGNIWKESLIELSGGQRSLIALSLIMALLQFRPAPMYILDEVDAALDLSHTQNIGHLIKTRFKGSQFIVVSLKEGMFANANRVFRTRFQDGTSVVSIM
B2: Ycs4 (S. cerevisiae condensin HEAT-repeat subunit) (natural protein)
chain: MSGFSLSEYLTKFQTTDRESYPRLQDPSRELNVIIDQLAVSPEQIDASPDSLEALIDLCHDFPHLTPKLQTQLSYLISSSLSNLSKDIKANLSSNVNFTEIGGLIPQWKRHLEEYGYLIQVLLTFLQDELHKVSSQSTNLNRSAKNSKNDSANVELFKRDCNQMENLLESITKLLEINLSKIFQTTPEKDLFIGLFTRPLFVLLEIEPVTKVSSLKMFIQRILAMCVKNHGQSSSIQSSLMTNLTYFLHLSVFNAELLKLLNDEYNYPQLTEDILKEISTRVFNAKDTTGPKAISNFLIKLSELSPGIMLRQMNLVITLLNNSSITLRCSVVEACGNIVAELAQDPQTMEHYKQQIAVLIELLEERFQDSNPYVRTKAIQGCSKICDLSSKFNKSKAKFTSLAVRSLQDRSSLVRRNSVKLLSKLLLKHPFKAIHGSQLRLSEWEEYLKGSESQLNSTLKKVESQETLNDTIERSLIEEEVEQDEGQCRTELEGSFNKSAELSRIENEVENINATNTSVLMKLKLMIVYYKDAISFIKEIHKSIELISNLLFSKNRNEVLESMDFLVLADAFDIELSEFGIKKMLHLVWMKGTNDEGTSISVHLIECYKQLFLTAPDSCNMQEKAAHIAKNLINLSIGASIADLASLEQLLGMMYEQKLIDQHVINILWAIYNSASKASMQKEQNVNNRDSEKGFSKEQIHGSIIILGMLSLADNEIALKGLESLLNIGLGAVGLKDLTLCRYSCLALERMVPKRSTIITKAINQELEDVAVKKLYAIIINYTKDNEYYPMCEQALSALFTISSKPDILATDLIREKTMMTFGKPEEEDSILSLEQSSRVVSLSQLLFIVGQVAIKTLVYLEKCEAEFKKRKIEAETRNGKVKNQGADVTNTTQDNGGDKELEMIGGTNEDDFTDAIQFVKENELLFGEKSILGKFCPIVEEIVSNSSRFSDPMLQRTATLCLEKLMCLSSKYCEKSLPLLITVMEKSPDPTIRSNAVLGLGDMAVCFNNLVDENTDYLYRRLHDENLMVQRTCLMTVTFLILAGQVKVKGQLGEMAKCLDNPDQGISDMCRLFFTELASKDNAIYNGFIDIFSNLSSDDLLGKESFKKIIKFLLTFIDKERHQKQLNEKLVGRLRKCETQKQWDDIAFVLNNLPYKNEDVTALLEQGFKVVSAKE

The target in assay [1] is B2. Put plainly: cross-linking.
For assay [2], the target named is T1, Smc4 (S. cerevisiae condensin subunit). Put plainly: cryo-EM structure.

As for B1, the binding result in assay [1] and in assay [2] was “binds” in each case. On to B2, for which, in assay [2], the binding result was “binds”.
